Results reported in the supplement of paper PMC6757056.
± gives the standard deviation of the averaged measurements.

B1: library; a variant is named by its letters at N, in order (parent)
chain: GCUGUCACCGGUGCUUGGUACGUUAUAUUCAGCCGGUCUGAUGAGUCUNNNNNNAGACGAAACAGC

What was measured:
(6R,S)-folinic acid [1] = variants of: B1; assay: normalized RNA/DNA level without ligand (relative to sTRSVctl = 100) (log10 (% of sTRSVctl)); HEK293T overexpressing SLC46A1; higher = less ribozyme self-cleavage, higher mRNA level; settings: without (6R,S)-folinic acid; ligand present: no
Method in brief: (§1)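 Ribozyme switch library plasmids with mCherry reporters (eGFP in certain ligand experiments) went into HEK293T cells at 4 µg per 6-well well. Where ligand was used, it was applied 1 h before transfection, and total RNA was extracted with EDTA 72 h later for reverse transcription, amplification, barcoding and sequencing. RNA level is the RNA-to-DNA read ratio normalized to a spiked-in non-cleaving sequence or to the leading sequences, then scaled and log-transformed. Scaling was ×100 with log10, the leading set comprised 25 sequences, and the cutoff was ≥100 DNA reads.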

(6R,S)-folinic acid [2] = variants of: B1; assay: normalized RNA/DNA level with ligand (relative to sTRSVctl = 100) (log10 (% of sTRSVctl)); HEK293T overexpressing SLC46A1; ligand concentration (+) RNA-Seq: 6 mM; higher = less ribozyme self-cleavage, higher mRNA level; settings: with (6R,S)-folinic acid; ligand present: yes
Method in brief: as §1

Variant | normalized RNA/DNA level without ligand (log10) ((6R,S)-folinic acid [1]) | normalized RNA/DNA level with ligand (log10) ((6R,S)-folinic acid [2])
AUAAGA | 1.971 ± 0.0094 | 2.01 ± 0.034
CUAAGC | 2.02 ± 0.026 | 2.024 ± 0.018
UUAAGC | 2.022 ± 0.0089 | 2.027 ± 0.016
CUAAGG | 1.96 ± 0.0065 | 2.002 ± 0.014
GUAAGU | 1.939 ± 0.0089 | 2.02 ± 0.06
UUAAGU | 1.996 ± 0.014 | 2.024 ± 0.0034
CUAAUC | 2.072 ± 0.014 | 2.007 ± 0.013
UUAAUC | 2.0392 ± 0.0017 | 2.03 ± 0.034
AUAAUC | 2.024 ± 0.015 | 2 ± 0.032
CUAAUG | 2.026 ± 0.013 | 2.02 ± 0.038
AUAAUG | 1.91 ± 0.021 | 2 ± 0.043
CUAAUU | 2.011 ± 0.01 | 2.02 ± 0.061
GUAAUU | 2.013 ± 0.0027 | 1.99 ± 0.024
UUAAUU | 2.011 ± 0.0048 | 2.01 ± 0.042
AUAAUU | 1.99 ± 0.025 | 2.03 ± 0.038
CUACAA | 1.98 ± 0.0052 | 1.99 ± 0.024
GUACAA | 1.966 ± 0.013 | 1.986 ± 0.011
UUACAA | 1.963 ± 0.0022 | 2.01 ± 0.028
CUACAC | 2.05 ± 0.011 | 2.023 ± 0.016
UUACAC | 2.003 ± 0.0021 | 1.99 ± 0.038
AUACAC | 2.01 ± 0.026 | 2.04 ± 0.039
CUACAG | 1.977 ± 0.011 | 2.03 ± 0.029
UUACAG | 1.898 ± 0.017 | 1.99 ± 0.027
CUACAU | 1.974 ± 0.0066 | 2.02 ± 0.039

Variant | normalized RNA/DNA level without ligand (log10) ((6R,S)-folinic acid [1]) | normalized RNA/DNA level with ligand (log10) ((6R,S)-folinic acid [2])
GUACAU | 1.965 ± 0.005 | 2.01 ± 0.034
UUACAU | 1.96 ± 0.025 | 1.98 ± 0.028
CUACCA | 2.0575 ± 0.0015 | 2.0336 ± 0.0013
GUACCA | 2.0976 ± 0.0018 | 2.038 ± 0.013
UUACCA | 2.03 ± 0.0034 | 2.028 ± 0.016
CUACCC | 2.045 ± 0.011 | 2 ± 0.047
GUACCC | 2.02 ± 0.03 | 2.03 ± 0.06
AUACCC | 2.023 ± 0.003 | 2.01 ± 0.023
CUACCG | 2.06 ± 0.029 | 2.05 ± 0.025
GUACCG | 2.088 ± 0.0044 | 2.06 ± 0.014
UUACCG | 1.969 ± 0.0046 | 2 ± 0.04
AUACCG | 2.013 ± 0.013 | 2.04 ± 0.042
CUACCU | 2.044 ± 0.02 | 2.01 ± 0.026
GUACCU | 2.086 ± 0.0075 | 2.06 ± 0.051
UUACCU | 2.061 ± 0.0025 | 2.05 ± 0.04
AUACCU | 2.0169 ± 0.00086 | 2.025 ± 0.011
CUACGA | 2.045 ± 0.012 | 2.05 ± 0.028
UUACGA | 2.013 ± 0.011 | 2.04 ± 0.035
AUACGA | 1.9851 ± 0.0003 | 2.01 ± 0.043
CUACGC | 2.025 ± 0.013 | 2.028 ± 0.0021
GUACGC | 2.01 ± 0.029 | 2.03 ± 0.026
UUACGC | 1.995 ± 0.011 | 1.995 ± 0.018
AUACGC | 2.015 ± 0.018 | 1.998 ± 0.013
CUACGG | 2.102 ± 0.0025 | 2.092 ± 0.0045

Variant | normalized RNA/DNA level without ligand (log10) ((6R,S)-folinic acid [1]) | normalized RNA/DNA level with ligand (log10) ((6R,S)-folinic acid [2])
UUACGG | 2.018 ± 0.0069 | 2.049 ± 0.016
CUACGU | 2 ± 0.01 | 1.99 ± 0.035
GUACGU | 1.986 ± 0.006 | 2.03 ± 0.049
AUACGU | 2.005 ± 0.0023 | 2.026 ± 0.01
CUACUA | 2.02 ± 0.021 | 2.05 ± 0.04
UUACUA | 1.978 ± 0.0023 | 2.01 ± 0.034
AUACUA | 1.97 ± 0.026 | 1.99 ± 0.025
CUACUC | 2.05 ± 0.021 | 2.03 ± 0.039
UUACUC | 2.048 ± 0.0074 | 2.03 ± 0.027
CUACUG | 2.0146 ± 0.00058 | 2.04 ± 0.024
GUACUG | 2.002 ± 0.013 | 2.015 ± 0.017
AUACUG | 1.939 ± 0.0046 | 2.01 ± 0.03
AUACUU | 2.018 ± 0.013 | 2.01 ± 0.043
CUACUU | 2.03 ± 0.022 | 2.02 ± 0.039
UUACUU | 1.991 ± 0.0083 | 1.994 ± 0.019
AUAGAA | 1.937 ± 0.0051 | 1.98 ± 0.028
CUAGAA | 1.992 ± 0.016 | 2.018 ± 0.016
CUAGAC | 1.98 ± 0.017 | 1.986 ± 0.015
GUAGAC | 1.911 ± 0.0045 | 2.003 ± 0.01
UUAGAC | 2 ± 0.01 | 2.01 ± 0.041
CUAGAG | 1.92 ± 0.035 | 2.02 ± 0.042
UUAGAU | 1.946 ± 0.012 | 1.99 ± 0.021
CUAGCA | 2.038 ± 0.0039 | 2.041 ± 0.0037
GUAGCA | 1.973 ± 0.0074 | 2 ± 0.022

Variant | normalized RNA/DNA level without ligand (log10) ((6R,S)-folinic acid [1]) | normalized RNA/DNA level with ligand (log10) ((6R,S)-folinic acid [2])
CUAGCC | 2.024 ± 0.015 | 1.98 ± 0.036
GUAGCC | 2.021 ± 0.016 | 2.051 ± 0.0086
UUAGCC | 2.013 ± 0.0037 | 1.99 ± 0.026
CUAGCG | 2.0229 ± 0.0015 | 2.05 ± 0.042
GUAGCG | 1.93 ± 0.023 | 2.01 ± 0.036
UUAGCG | 1.896 ± 0.0052 | 1.98 ± 0.032
AUAGCU | 2 ± 0.016 | 2 ± 0.046
CUAGCU | 2.033 ± 0.0023 | 1.993 ± 0.014
UUAGCU | 2.007 ± 0.0056 | 2.02 ± 0.047
AUAGGA | 1.91 ± 0.022 | 1.99 ± 0.053
CUAGGA | 2.016 ± 0.0053 | 2.01 ± 0.047
GUAGGA | 1.946 ± 0.0025 | 2 ± 0.047
GUAGGC | 1.881 ± 0.011 | 2.0344 ± 0.00079
CUAGGG | 1.882 ± 0.017 | 2.02 ± 0.028
GUAGGU | 1.998 ± 0.013 | 2.04 ± 0.03
UUAGGU | 1.942 ± 0.0098 | 1.971 ± 0.016
CUAGUA | 1.996 ± 0.015 | 2 ± 0.034
GUAGUA | 1.9662 ± 0.0006 | 1.98 ± 0.025
UUAGUA | 1.9501 ± 0.0015 | 1.98 ± 0.026
AUAGUC | 2.056 ± 0.0045 | 2.03 ± 0.033
CUAGUC | 2.081 ± 0.0096 | 2.025 ± 0.015
GUAGUC | 2.038 ± 0.0078 | 2.03 ± 0.032
UUAGUC | 2.031 ± 0.0018 | 2.024 ± 0.0089
CUAGUG | 2 ± 0.028 | 2.03 ± 0.014

Variant | normalized RNA/DNA level without ligand (log10) ((6R,S)-folinic acid [1]) | normalized RNA/DNA level with ligand (log10) ((6R,S)-folinic acid [2])
UUAGUG | 1.759 ± 0.012 | 1.962 ± 0.012
AUAGUU | 1.9853 ± 0.0008 | 2.009 ± 0.01
CUAGUU | 2.064 ± 0.0034 | 2.03 ± 0.041
GUAGUU | 2.003 ± 0.0023 | 2.02 ± 0.021
UUAGUU | 1.972 ± 0.0056 | 1.97 ± 0.052
AUAUAA | 1.956 ± 0.0059 | 1.96 ± 0.032
CUAUAA | 1.984 ± 0.0043 | 1.978 ± 0.0033
GUAUAA | 1.96 ± 0.014 | 1.99 ± 0.006
UUAUAA | 1.925 ± 0.0034 | 1.981 ± 0.017
CUAUAC | 2.001 ± 0.0069 | 2.01 ± 0.014
GUAUAC | 1.9802 ± 0.0015 | 2.02 ± 0.026
CUAUAU | 2 ± 0.033 | 2.03 ± 0.063
GUAUAU | 1.944 ± 0.018 | 1.97 ± 0.043
UUAUAU | 1.9416 ± 0.0019 | 2 ± 0.057
AUAUCA | 2.0081 ± 0.00069 | 2.04 ± 0.036
CUAUCA | 2.03 ± 0.035 | 2.0307 ± 0.00092
UUAUCA | 1.999 ± 0.019 | 2.01 ± 0.021
CUAUCC | 2.07 ± 0.03 | 2.04 ± 0.037
GUAUCC | 2.015 ± 0.013 | 2 ± 0.035
UUAUCC | 2.04 ± 0.016 | 2.01 ± 0.032
